Results taken from patent US20240417437A1 (TRUTINO BIOSCIENCES, published 2024).
Each block holds one binder with its values, some of them ahead of it.

How the values were obtained:
[1] = biological target: T1, collagen cross-linked to agarose (Sigma); experiment: pulldown with collagen-agarose, immunoblot quantified with iBright imaging system; reference Construct B
T1 construct: also called collagen-agarose; collagen-agarose beads
Description: To test binding to collagen, a pulldown assay using agarose cross-linked to collagen (Sigma) was performed. IL-2 fusion proteins were incubated with collagen-agarose or control agarose beads for 18-22 hours at 4° C. with gentle rotation in 1% BSA/PBS-0.05% Tween 20. After washing, proteins bound to the beads were eluted by resuspending beads in SDS sample buffer (Life Technologies). […] Donkey anti-goat HRP-conjugated antibody was used for detection (Jackson Immuno Research, West Grove, PA), and the blot was developed using the SuperSignal West Femto Maximum sensitivity detection reagent (ThermoFisher) following the manufacturer's recommendations. Construct GG and Construct II were specifically bound by collagen-agarose beads, while no IL-2 fusion protein bound the control agarose beads.

[2] = biological target: fibronectin (Sigma), coated on 96-well plates; experiment: plate ELISA on coated fibronectin at pH 6, OD 450-650nm. The EC50 is printed in the plot area beside the top curve (Construct EE - pH 6), the only strongly rising curve
Description: A similar plate-based assay was developed to interrogate binding of IL-2 fusion variants to fibronectin. 96-well plates were coated with fibronectin (4-10 μg/mL, Sigma) or control BSA for 18-22 hours at room temperature on shaker (350 rpm). After washing, wells were blocked with 2% milk powder in PBS-0.05% Tween 20 or protein-free blocking buffer (Pierce) for 90 min, then fusion proteins were titrated in blocking buffer-0.1% Tween 20, pH 7.5 and/or pH 6, and added for 1 hour at room temperature with shaking. After washing, an anti-mouse IL-2 biotin-labelled detection antibody (JES6-5H4, ThermoFisher) or anti-human IgG HRP conjugate antibody (SouthernBiotech) was added, and binding was detected using Ultra Streptavidin HRP (ThermoFisher). The plate was developed by adding the chromogenic tetramethylbenzidine substrate (Ultra TMB, ThermoFisher). The reaction was stopped by addition of 0.5 M H₂SO₄, and the absorbance was read at 450-650 nm.

fibronectin (Sigma), coated on 96-well plates, sequence (P02751 32-2477): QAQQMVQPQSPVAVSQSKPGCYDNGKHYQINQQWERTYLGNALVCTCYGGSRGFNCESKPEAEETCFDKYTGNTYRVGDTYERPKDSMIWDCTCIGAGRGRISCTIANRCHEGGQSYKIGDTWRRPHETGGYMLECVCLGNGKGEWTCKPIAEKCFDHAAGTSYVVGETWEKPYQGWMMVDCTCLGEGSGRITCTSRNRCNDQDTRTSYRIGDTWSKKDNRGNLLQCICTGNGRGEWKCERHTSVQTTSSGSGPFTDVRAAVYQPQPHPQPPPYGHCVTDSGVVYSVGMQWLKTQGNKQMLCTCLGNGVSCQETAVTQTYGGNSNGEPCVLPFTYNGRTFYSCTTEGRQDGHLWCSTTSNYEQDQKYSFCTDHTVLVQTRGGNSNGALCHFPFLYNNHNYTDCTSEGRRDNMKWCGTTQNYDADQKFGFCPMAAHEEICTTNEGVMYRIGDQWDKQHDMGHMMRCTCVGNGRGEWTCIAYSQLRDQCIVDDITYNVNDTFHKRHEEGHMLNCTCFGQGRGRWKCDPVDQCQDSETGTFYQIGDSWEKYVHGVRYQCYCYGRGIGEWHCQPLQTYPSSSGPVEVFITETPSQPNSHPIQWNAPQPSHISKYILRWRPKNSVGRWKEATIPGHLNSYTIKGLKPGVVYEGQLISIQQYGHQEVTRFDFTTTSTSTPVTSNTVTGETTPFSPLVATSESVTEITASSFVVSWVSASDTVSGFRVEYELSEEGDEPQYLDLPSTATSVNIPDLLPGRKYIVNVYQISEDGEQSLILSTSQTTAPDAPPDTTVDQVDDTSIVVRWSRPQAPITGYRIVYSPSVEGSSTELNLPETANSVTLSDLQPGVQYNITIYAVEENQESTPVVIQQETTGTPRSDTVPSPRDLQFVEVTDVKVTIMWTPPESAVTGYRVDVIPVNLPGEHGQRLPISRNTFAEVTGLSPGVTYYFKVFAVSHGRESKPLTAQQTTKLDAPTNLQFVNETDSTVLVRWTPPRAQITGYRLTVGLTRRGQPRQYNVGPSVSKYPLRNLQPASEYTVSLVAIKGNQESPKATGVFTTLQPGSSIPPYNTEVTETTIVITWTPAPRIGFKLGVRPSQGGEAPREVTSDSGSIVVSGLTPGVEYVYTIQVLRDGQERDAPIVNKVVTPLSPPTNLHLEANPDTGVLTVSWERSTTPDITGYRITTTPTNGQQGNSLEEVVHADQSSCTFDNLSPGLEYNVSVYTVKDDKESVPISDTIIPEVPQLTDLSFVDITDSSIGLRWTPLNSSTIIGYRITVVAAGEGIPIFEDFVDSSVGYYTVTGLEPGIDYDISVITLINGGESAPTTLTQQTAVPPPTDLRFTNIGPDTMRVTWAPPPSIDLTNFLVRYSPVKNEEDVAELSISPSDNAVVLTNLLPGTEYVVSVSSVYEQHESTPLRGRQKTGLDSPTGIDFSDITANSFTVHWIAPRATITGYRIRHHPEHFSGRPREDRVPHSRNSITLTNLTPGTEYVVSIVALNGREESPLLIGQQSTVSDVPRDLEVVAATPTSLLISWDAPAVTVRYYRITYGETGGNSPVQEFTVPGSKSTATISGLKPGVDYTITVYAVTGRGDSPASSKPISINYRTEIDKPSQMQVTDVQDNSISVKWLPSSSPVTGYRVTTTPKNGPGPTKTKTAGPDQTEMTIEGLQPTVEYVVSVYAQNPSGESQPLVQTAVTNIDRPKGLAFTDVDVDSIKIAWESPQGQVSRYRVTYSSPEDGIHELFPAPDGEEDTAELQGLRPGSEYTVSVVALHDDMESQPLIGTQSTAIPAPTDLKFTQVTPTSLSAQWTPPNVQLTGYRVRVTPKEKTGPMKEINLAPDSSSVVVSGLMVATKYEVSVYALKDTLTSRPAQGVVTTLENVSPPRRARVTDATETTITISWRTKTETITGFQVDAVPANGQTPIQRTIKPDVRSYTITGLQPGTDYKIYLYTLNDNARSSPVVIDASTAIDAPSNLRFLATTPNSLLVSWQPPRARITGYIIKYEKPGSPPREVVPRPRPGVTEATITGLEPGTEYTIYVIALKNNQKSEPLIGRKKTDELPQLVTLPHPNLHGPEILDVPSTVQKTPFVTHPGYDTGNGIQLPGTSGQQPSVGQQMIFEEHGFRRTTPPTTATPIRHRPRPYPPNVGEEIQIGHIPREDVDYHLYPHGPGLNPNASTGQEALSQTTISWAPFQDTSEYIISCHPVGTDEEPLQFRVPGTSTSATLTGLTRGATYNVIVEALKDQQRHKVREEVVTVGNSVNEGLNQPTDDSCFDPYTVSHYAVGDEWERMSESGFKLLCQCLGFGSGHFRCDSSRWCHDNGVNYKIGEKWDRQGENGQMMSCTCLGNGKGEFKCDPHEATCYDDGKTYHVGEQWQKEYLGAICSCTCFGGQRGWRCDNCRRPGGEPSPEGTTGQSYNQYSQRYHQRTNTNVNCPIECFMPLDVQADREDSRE

- fold of bound fraction over Construct B [1]: 1.4 fold
B1: Construct II (collagen I): mIL2-LHERHLNNN(SEQ ID NO: 665)-MMPcs1-2x(G4S)-mIL2Ra(1-215)-muIgG1Fc (Fc fusion)
chain: APTSSSTSSSTAEAQQQQQQQQQQQQHLEQLLMDLQELLSRMENYRNLKLPRMLTFKFYLPKQATELKDLQCLEDELGPLRHVLDLTQSKSFQLEDAENFISNIRVTVVKLKGSDNTFECQFDDESATVVDFLRRWIAFCQSIISTSPQSLHERHLNNNGPLGVRGGGGGSGGGGSELCLYDPPEVPNATFKALSYKNGTILNCECKRGFRRLKELVYMRCLGNSWSSNCQCTSNSHDKSRKQVTAQLEHQKEQQTTTDMQKPTQSMHQENLTGHCREPPPWKHEDSKRIYHFVEGQSVHYECIPGYKALQRGPAISICKMKCGKTGWTQPQLTCVDEREHHRFLASEESQGSRNSSPESETSCPITTTDFPQPTETTAMTETFVLTMEYKGCKPCICTVPEVSSVFIFPPKPKDVLTITLTPKVTCVVVDISKDDPEVQFSWFVDDVEVHTAQTQPREEQFNSTFRSVSELPIMHQDWLNGKEFKCRVNSAAFPAPIEKTISKTKGRPKAPQVYTIPPPKEQMAKDKVSLTCMITDFFPEDITVEWQWNGQPAENYKNTQPIMDTDGSYFVYSKLNVQKSNWEAGNTFTCSVLHEGLHNHHTEKSLSHSPGK

- EC50 [2]: 1820 nM
B2: Construct EE (pH fibronectin): mIL2-SGG-GGWSHW(SEQ ID NO: 653)-MMPcs1-2x(G4S)-mIL2Ra(1-215)-muIgG1Fc (Fc fusion)
chain: APTSSSTSSSTAEAQQQQQQQQQQQQHLEQLLMDLQELLSRMENYRNLKLPRMLTFKFYLPKQATELKDLQCLEDELGPLRHVLDLTQSKSFQLEDAENFISNIRVTVVKLKGSDNTFECQFDDESATVVDFLRRWIAFCQSIISTSPQSGGGGWSHWGPLGVRGGGGGSGGGGSELCLYDPPEVPNATFKALSYKNGTILNCECKRGFRRLKELVYMRCLGNSWSSNCQCTSNSHDKSRKQVTAQLEHQKEQQTTTDMQKPTQSMHQENLTGHCREPPPWKHEDSKRIYHFVEGQSVHYECIPGYKALQRGPAISICKMKCGKTGWTQPQLTCVDEREHHRFLASEESQGSRNSSPESETSCPITTTDFPQPTETTAMTETFVLTMEYKGCKPCICTVPEVSSVFIFPPKPKDVLTITLTPKVTCVVVDISKDDPEVQFSWFVDDVEVHTAQTQPREEQFNSTFRSVSELPIMHQDWLNGKEFKCRVNSAAFPAPIEKTISKTKGRPKAPQVYTIPPPKEQMAKDKVSLTCMITDFFPEDITVEWQWNGQPAENYKNTQPIMDTDGSYFVYSKLNVQKSNWEAGNTFTCSVLHEGLHNHHTEKSLSHSPGK
notes: Single-chain mouse IL-2 / IL-2Ralpha / mouse IgG1 Fc fusion
